Assay results taken from US20240067728A1 (BIO THERA SOLUTIONS, published 2024).
Changes are numbered by the printed parent chain. Names and notes keep the numbering of the source. Read-outs that look alike come from different tables or passages of the source.

Tests used:
[1] = biological target: T1, CD47-His antigen (human, UniProt Q08722 19-139); test: SPR (Biacore), method of Example 5; cell carries an unexplained mark ^
T1 construct: Human CD47 ECD with C-terminal 8xHIS tag, expressed in HEK293F; also called hCD47-His; human CD47-His

[2] = biological target: T2, PD-L1 on CHO-PD-L1 cells (Promega PD-1/PD-L1 Blockade Bioassay) (UniProt Q9NZQ7 19-290, limits assumed); test: cell-based or functional assay
T2 sequence (Q9NZQ7 19-290 limits assumed): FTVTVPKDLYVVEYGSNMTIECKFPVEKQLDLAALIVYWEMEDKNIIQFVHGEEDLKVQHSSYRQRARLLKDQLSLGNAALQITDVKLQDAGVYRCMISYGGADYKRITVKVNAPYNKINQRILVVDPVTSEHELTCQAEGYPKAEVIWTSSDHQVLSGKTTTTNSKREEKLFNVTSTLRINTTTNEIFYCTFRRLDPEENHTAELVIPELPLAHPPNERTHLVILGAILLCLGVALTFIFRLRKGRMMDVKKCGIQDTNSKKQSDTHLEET

[3] = biological target: T3, human PD-L1 on PD-L1-CHO cells (human, UniProt Q9NZQ7 19-290); test: FACS on PD-L1-CHO cells, PE-labeled anti-human Fc secondary antibody; MFI(Mean) against Con(nM)
T3 construct: whole, on cells; also called CHO cells overexpressing human PD-L1; PD-L1 expressed on the cell surface
T3 sequence (Q9NZQ7 19-290): as the sequence (Q9NZQ7 19-290 limits assumed) above

[4] = biological target: T3, human PD-L1 on PD-L1-CHO cells; test: as above; remark: listed apart in the source
[5] = biological target: T2, PD-L1 on CHO-PD-L1 cells (Promega …); test: cell-based or functional assay; remark: listed apart in the source
[6] = biological target: T4, PD-L1-His antigen (human, UniProt Q9NZQ7 19-238); test: SPR (Biacore T200), PD-L1-His immobilised on chip, antibody as mobile phase, 1:1 Binding fit
T4 construct: Human PD-L1 ECD with C-terminal 8xHIS tag, expressed in HEK293F; also called hPDL1-His; human PD-L1-His
T4 sequence (Q9NZQ7 other isoform, or with tags, fused parts or gaps limits assumed): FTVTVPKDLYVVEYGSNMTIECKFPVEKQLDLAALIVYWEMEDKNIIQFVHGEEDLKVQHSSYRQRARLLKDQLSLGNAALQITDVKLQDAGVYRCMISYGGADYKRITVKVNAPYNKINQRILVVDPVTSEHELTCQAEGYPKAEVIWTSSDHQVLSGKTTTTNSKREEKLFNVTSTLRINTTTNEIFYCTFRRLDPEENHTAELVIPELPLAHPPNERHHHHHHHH

[7] = biological target: T2, PD-L1 on CHO-PD-L1 cells (Promega …); test: cell-based or functional assay; remark: listed apart in the source
[8] = biological target: T5, human CD47 on CD47-CHO cells (human, UniProt Q08722 19-323); test: FACS on CD47-CHO cells, PE-labeled anti-human Fc secondary antibody; MFI(Mean) against Con(nM)
T5 construct: whole, on cells; also called CHO cells overexpressing human CD47; CD47 expressed on the cell surface

[9] = biological target: T6, CD47 on human red blood cells (human, UniProt Q08722 19-323); test: FACS on human red blood cells, PE-labeled anti-human Fc secondary antibody; MFI(Mean) against Con(nM)
T6 construct: whole, on cells; also called RBC

[10] = biological target: T1, CD47-His antigen; test: SPR (Biacore), method of Example 5, 1:1 Binding fit
[11] = biological target: T7, CD47 on human T lymphocyte leukemia Jurkat cells (human, UniProt Q08722 19-323); test: FACS on Jurkat cells, PE-labeled anti-human Fc secondary antibody; MFI(Mean) against Con(nM)
T7 construct: whole, on cells; also called tumor cells

[12] = biological target: T5, human CD47 on CD47-CHO cells; test: FACS on CD47-CHO cells, PE-labeled anti-human Fc secondary antibody; MFI(Mean) against Con(nM); remark: listed apart in the source

B1: 47-R2-18 (antibody, human IgG1, kappa, V domains shown)
VH: QVQLQESGPGLVKPSETLSLTCTVSGGSLDNYYWSWIRQPPGKGLEWIGYIYYSGNTNYNPSLKSRVTISVDTSKNQFSLKLSSVTAADTAVYYCARGGRFLERYWGQGTLVTVSS
VL: EIVLTQSPSSVSASVGDRITITCRASQGIGSWLAWYQQKPGKAPSLLIYAASSLQSGVPSRFSGSGSGTDFTLTISSLQTEDVAVYYCQQYFSTPYTFGQGTKVDIKR
notes: Anti-CD47 monoclonal antibody, L12-6-VH with light chain R2-18
[1]
  Kd: 0.312 nM

B2: BsAb-71-N297A (bispecific antibody, human IgG1, kappa, N297A)
heavy 1: EVQLVESGGGLVQPGGSLRLSCAASGFTFSDSWIHWVRQAPGKGLEWVGWISPYGGSTYYADSYRSRFTISADTSKNTAYLQMNSLRAEDTAVYYCARRHWPGGFDYWGQGTLVTVSSASTKGPSVFPLAPSSKSTSGGTAALGCLVKDYFPEPVTVSWNSGALTSGVHTFPAVLQSSGLYSLSSVVTVPSSSLGTQTYICNVNHKPSNTKVDKKVEPKSCDKTHTCPPCPAPELLGGPSVFLFPPKPKDTLMISRTPEVTCVVVDVSHEDPEVKFNWYVDGVEVHNAKTKPREEQYASTYRVVSVLTVLHQDWLNGKEYKCKVSNKALPAPIEKTISKAKGQPREPQVYTLPPCRDELTKNQVSLWCLVKGFYPSDIAVEWESNGQPENNYKTTPPVLDSDGSFFLYSKLTVDKSRWQQGNVFSCSVMHEALHNHYTQKSLSLSPGK
heavy 2: not shown
light: EIVLTQSPSSLSASVGDRVTITCLASQTIGTWLAWYQQKPGKSPQLLIYAASTLQSGVPSRFSGSGSGTDFTLTISSLQPEDVATYYCQQYYSTPRTFGQGTKVEIKRTVAAPSVFIFPPSDEQLKSGTASVVCLLNNFYPREAKVQWKVDNALQSGNSQESVTEQDSKDSTYSLSSTLTLSKADYEKHKVYACEVTHQGLSSPVTKSFNRGEC
notes: BsAb-71 with the N297A mutation in the Fc region; also called anti-PD-L1/CD47 bispecific antibody BsAb-71-N297A
[2]
  EC50 (luciferase reporter, PD-1/PD-L1 blockade MOA assay; blocked partner: PD-1 on Jurkat-PD1 cells): 0.164 mg/L
[3]
  EC50 (read off the curve): ~0.5 nM

B3: L1-R2-4-71 (antibody, human IgG1, kappa, V domains shown)
VH: EVQLVESGGGLVQPGGSLRLSCAASGFTFSDSWIHWVRQAPGKGLEWVGWISPYGGSTYYADSYRSRFTISADTSKNTAYLQMNSLRAEDTAVYYCARRHWPGGFDYWGQGTLVTVSS
VL: EIVLTQSPSSLSASVGDRVTITCLASQTIGTWLAWYQQKPGKSPQLLIYAASTLQSGVPSRFSGSGSGTDFTLTISSLQPEDVATYYCQQYYSTPRTFGQGTKVEIKR
notes: also called parental anti-PD-L1 antibody L1-R2-4-71
[2]
  EC50 (luciferase reporter, PD-1/PD-L1 blockade MOA assay; blocked partner: PD-1 on Jurkat-PD1 cells): 0.087 mg/L
[3]
  EC50 (read off the curve): ~0.2 nM
[4]
  EC50 (read off the curve): ~0.6 nM
[5]
  EC50 (luciferase reporter, PD-1/PD-L1 blockade MOA assay; blocked partner: PD-1 on Jurkat-PD1 cells): 0.382 mg/L
  EC50 (read off the curve): ~2 mg/L
[6]
  Kd: 0.282 nM
[7]
  EC50 (luciferase reporter, PD-1/PD-L1 blockade MOA assay; blocked partner: PD-1 on Jurkat-PD1 cells): 0.292 mg/L

B4: 47-R2-89 (antibody, human IgG1, kappa, V domains shown)
VH: B1 VH
VL: B3 VL with E1D, V3Q, L4M, T53S, R96Y, E105D
notes: Anti-CD47 monoclonal antibody, L12-6-VH with light chain R2-89
[1]
  Kd: 0.361 nM

B5: 47-R2-4 (antibody, human IgG1, kappa, V domains shown)
VH: B1 VH
VL: B3 VL
notes: Anti-CD47 monoclonal antibody, L12-6-VH with light chain R2-4; also called parental anti-CD47 antibody 47-R2-4
[8]
  EC50 (read off the curve): ~0.9 nM
[9]
  EC50 (read off the curve): ~3 nM
[10]
  Kd: 3.29 nM
[4]
  binding result: no binding (tested: 10 nM)
[11]
  EC50 (read off the curve): ~0.7 nM
[12]
  EC50 (read off the curve): ~1 nM
